According to paper PMC9814548, “Chemoenzymatic synthesis of 3-ethyl-2,5-dimethylpyrazine by L-threonine 3-dehydrogenase and 2-amino-3-ketobutyrate CoA ligase/L-threonine aldolase” (Communications Chemistry, 2021):

T1: CnKBL (Cupriavidus necator, UniProt Q0K313)
T1 construct: gene kbl; gene cloned in pET-28a (NcoI/XhoI), E. coli BL21(DE3), Ni-Sepharose and gel filtration; dimer; PLP on K246
T1 sequence (Q0K313 1-399): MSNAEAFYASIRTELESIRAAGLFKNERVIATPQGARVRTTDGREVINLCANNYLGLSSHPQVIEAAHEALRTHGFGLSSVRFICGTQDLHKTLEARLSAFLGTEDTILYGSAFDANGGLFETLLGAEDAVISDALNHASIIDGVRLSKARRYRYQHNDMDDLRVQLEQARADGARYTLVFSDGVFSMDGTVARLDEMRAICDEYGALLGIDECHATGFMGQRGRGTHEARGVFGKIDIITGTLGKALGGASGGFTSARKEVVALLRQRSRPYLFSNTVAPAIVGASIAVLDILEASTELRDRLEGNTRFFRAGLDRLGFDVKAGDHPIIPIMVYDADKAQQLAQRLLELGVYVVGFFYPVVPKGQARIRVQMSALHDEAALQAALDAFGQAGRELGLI

B1: CnKBL (Cupriavidus necator H16) (protein)
chain: T1 sequence (Q0K313 1-399)
notes: gene cloned in pET-28a (NcoI/XhoI), E. coli BL21(DE3), Ni-Sepharose and gel filtration; dimer; PLP on K246

Columns and labels:
CnKBL = target: T1, CnKBL; test: X-ray crystal structure, […] Å; assay type: binding; settings: covalent, Schiff base with K246
purified protein [1] = substrate: CC(=O)SCCNC(=O)CCNC(=O)[C@H](O)C(C)(C)COP(=O)(O)OP(=O)(O)OC[C@H]1O[C@@H](n2cnc3c(N)ncnc32)[C@H](O)[C@@H]1OP(=O)(O)O; test: purified protein; assay type: biochemical, Cupriavidus necator; settings: 100 mM Gly, 50 mM potassium phosphate pH 8.0, 30 °C
purified protein [2] = substrate: CCC(O)C(N)C(=O)O; test: purified protein; assay type: biochemical, Cupriavidus necator; settings: 50 mM potassium phosphate pH 8.0, 30 °C, no CoA
purified protein [3] = substrate: C[C@@H](O)[C@H](N)C(=O)O; test: purified protein; assay type: biochemical, Cupriavidus necator; settings: 50 mM potassium phosphate pH 8.0, 30 °C, no CoA
purified protein [4] = substrate: C[C@H](O)[C@H](N)C(=O)O; test: purified protein; assay type: biochemical, Cupriavidus necator; settings: 50 mM potassium phosphate pH 8.0, 30 °C, no CoA
purified protein [5] = substrate: NCC(=O)O; test: purified protein; assay type: biochemical, Cupriavidus necator; settings: 1 mM acetyl-CoA, 50 mM potassium phosphate pH 8.0, 30 °C

Molecule | X-ray crystal structure, 1.8 Å (CnKBL) | Km (purified protein [1]) | kcat (purified protein [1]) | Km (purified protein [2]) | kcat (purified protein [2]) | kcat/Km (purified protein [2]) | Km (purified protein [3]) | kcat (purified protein [3]) | kcat/Km (purified protein [3]) | Km (purified protein [4]) | kcat (purified protein [4]) | kcat/Km (purified protein [4]) | Km (purified protein [5]) | kcat (purified protein [5])
Cc1ncc(COP(=O)(O)O)c(C=O)c1O [PLP] | only PLP is coordinated at the site by forming a Schiff base with the side chain |  |  |  |  |  |  |  |  |  |  |  |  | 
B1 |  | 242.7 ± 10.4 µM | 3.43 ± 0.036 s⁻¹ | 200 ± 56 µM | 0.00123 ± 7.17e-05 s⁻¹ | 6.17 M⁻¹ s⁻¹ | 1240 ± 110 µM | 0.00283 ± 0.0065 s⁻¹ | 2.33 M⁻¹ s⁻¹ | 420 ± 86 µM | 0.000778 ± 4.33e-05 s⁻¹ | 1.83 M⁻¹ s⁻¹ | 13900 ± 520 µM | 3.43 ± 0.036 s⁻¹
